Molecular target: the molecule itself
Experiment: small angle scattering + dynamic light scattering (PDI); results not shown; conditions not given

B1: MamK from Magnetospirillum gryphiswaldense MSR-1, C-terminal poly-histidine-tagged (natural protein, UniProt Q6NE59 1-360, looked up)
chain: MWIDLLARERSDKMSEGEGQAKNRLFLGIDLGTSHTAVMTSRGKKFLLKSVVGYPKDVIGLKLLGRPYVVGDEAFEMRSYLDLRYPLQDGVLSEISDRDIEVARHLLTHVVKSAEPGANDEICAVIGVPARASGANKALLLKMAQEVVHTALVVSEPFMVGYGLDKLNNTIIVDIGAGTTDICALKGTVPGPEDQVTLTKAGNYLDERLQNAILERHPELQMNTNVACAVKEQFSFVGARGEAATFEFRAAGKPVRCDVTESVKIACEALMPDIIESIEILLRSFQPEYQATVLQNIVFAGGGSRIRGLAAYVKDKLRPFGNADVTCVKDPTFDGCRGALRLAEELPPQYWCQLGDVSGQ
notes: MamK, actin-like protein of M. gryphiswaldense MSR-1; mamK gene (1083 bp) cut from a MamK-pGEM construct with SalI/EcoRI and sub-cloned into pET29b; purified as a 42 KDa protein; No cleavage of the tag is described; also called His-MamK; His-tagged MamK
With B1 the “stoichiometry N” value was 2 to 6.

Reference: publication PMC3346761, “Insight into the Assembly Properties and Functional Organisation of the Magnetotactic Bacterial Actin-like Homolog, MamK” (PLoS ONE, 2012)
